Laboratory results reported in the DeepSol protein solubility set.

Assay: soluble on expression in E. coli; label from the status in PepcDB or PDB records

**Q.** With “MPLPIAAPPILASTLTLLLATTPTAAALTPEQHAAALVAQMTRQEKIAQTMNAAPAIPRLGIPAYDWWSEGLHGIARNGYATVFPQAIGLAASWNTDLLQHVGTVTSTEARAKFNLTGGPGKDHPRYAGLTLWSPNINIFRDPRWGRGMETYGEDPYLTSQLAVSFIRGLQGDTPDHPRTIATPKHFAVHSGPEQGRHSFDVDVSAYDLEATYTPAFRAAIVDGHAGSVMCAYNALHGTPACASDWLLNTRLRNDWGFNGFVVSDCDAIEDMTRFHFFRQDNASASAAALKSGNDLNCGNTYRDLNQAIARGDIDESTLDQALIRLFTARQRLGTLQPREHDPYAAIGIK” as the sequence, how does the “soluble on expression in E. coli” value read?
**A.** Its value is “not soluble”.

**Q.** Which “soluble on expression in E. coli” value does the source give for “MLSVFPLAGMSLASLHYSTHRVDQTQVYMVAAPMADYRVVMTEPAASGQDTYLETTAAFARRTGAVAAMNTNFFRWLNAQSLRSFQDYQKWIMGESNPEGISYRALRQTCLSGRGTIPAGVAGAYIVNGRVVRPYEGGYSGIVNFPAQGGIEFYRGRLPEQPFNVVSGSQQLLDGGRKLPVDGSDRTSPKAILGRRGNEYVFVVSDGRGNGGSPGLSFLQLQDFLLQQGVTEATAMDGGESATLVVEGQVKNHPRDRYCELARWLPAPALTLINLEEEAQETAMAMGRSLRPVGANIGLVPRHRPPAFLSFAFWEFLQQRLLARLRAWRDAVLEHHHHHH” here?
**A.** Its value is “not soluble”.

**Q.** For “FMAKLTSAVPVLTARDVAGAVEFWTDRLGFSRDFVEDDFAGVVRDDVTLFISAVQDQVVPDNTLAWVWVRGLDELYAEWSEVVSTNFRDASGPAMTEIGEQPWGREFALRDPAGNCVHFVAEEQD”, which “soluble on expression in E. coli” value is on record?
**A.** Its value is “soluble”.

**Q.** For “TGLRPSGTVSCPICMDGYSEIVQNGRLIVSTECGHVFCSQCLRDSLKNANTCPTCRKKINHK”, which “soluble on expression in E. coli” value is on record?
**A.** The value was “soluble”.

**Q.** For “EAEAISCGSPPPILNGRISYYSTPIAVGTVIRYSCSGTFRLIGEKSLLCITKDKVDGTWDKPAPKCQYFNKYSSCPEPIVPGGYKIRGSTPYRHGDSVTFACKTNFSMNGNKSVWCQANNMWGPTRLPTCVSVFPLEQKLIS”, which “soluble on expression in E. coli” value is on record?
**A.** Its value is “soluble”.

**Q.** For “MKFAIIIPFYNAEKRLALSIDSIIKQTYSFLKHVEVLLINDGSTDRSSAIAHSYAEKYPSNIRVFDVPNGGPSKARNIGIHNVQEDTDFVGFLDADDLLSPNMLFSMVNFLEKSAVNMLVPAFYYLDDFGKKQKISPHKLNDRFTNGNRVVAIEKEPQAIHFYIGGTFFRFESLKQFVFDETLNFAEDQLLITKFLLENRSYGLIADAGYYYYRDLKQKGSLVSSAWKQPERYTPFLQKVYQTYLTNSKEIFGEVIPYVQYLIAYHAKLFFYKENIYFKEVLNEQEQEIFVRELQKILQEVGPEMIVALDTPLVVKEMMLSILRNGWPVQFKTAELEEVPLVTVKENYRPGKAVTVELLLEEARETLSDGGEFFASTSVGTAQTKVVKRKTAQTIWDIVVREEGTLEKVVTRLKPYQLKVQVFYQDKNQKITMTDLNVIKSVLGKLKRNKALKRKFKQGGVSLEHHHHHH”, which “soluble on expression in E. coli” value is on record?
**A.** Its value is “soluble”.

**Q.** With “NIITVTLNMERHHFLGISIVGQSNDRGDGGIYIGSIMKGGAVAADGRIEPGDMLLQVNDVNFENMSNDDAVRVLREIVSQTGPISLTVAK” as the sequence, how does the “soluble on expression in E. coli” value read?
**A.** Its value is “soluble”.

**Q.** Which “soluble on expression in E. coli” value does the source give for “MQKMDCQAIGYGYIIIPKALLKEQLIDCSPHEGEIEAFLKLLVKVNYSETKLTDHQRRTIVCKRGESLHSYRSWSAIFHWPTSRTYRFIQQLKTNGIIEIIPHNDTTALHIRVVNYENWTNISALLNEKKENTQKASNEKFRLFWDDYHNILQLPKENIAKAQRIWKKLSEKEQQLAIDHIEEYYYHQTNMKFTLHACSYLSNKAFLNEYEY” here?
**A.** The value was “not soluble”.

**Q.** For “MSSAPPAPRVIAVVGPTAAGKSDLGVFLAQRLGGEVVNADSMQLYRGMDIGTAKLTPEERGGVPHHLLDIWDVTVTASVAEYQRLARERIDALLAEGRWPILVGGSGLYVRGAVDNLEFPGTDPGIRARLEEELELRGPGALHARLAVADPEAARAILPSNGRRIVRALEVIEITGRPFTANLPGHDSVYDTVQIGVDVARPELHERIALRVDRMWEAGLVDEVRALEAQGLREGRTASRALGYQQVLAALAGECTLDEARAETVRATKRFARRQDSWFRRDPRVHWLSGGVADRTELPRLALSLVERPVTALEHHHHHH”, which “soluble on expression in E. coli” value is on record?
**A.** Its value is “not soluble”.

**Q.** For “MGSDKIHHHHHHMNIAIDARGINLYRGTGIGTYTENLVRELLNIDEENSYTLYWYGNNYKDFIKSNTKINIVSKGCHSFFEKCYFPENIIKNSIEIYHVPQNGIGLDQNVSCIKVSTVHDLIPYIMPETVGKGYLLKFLKNMPFIIENSDAILTVSEYSKKDILKYFPINEDKIYVTPLAANYNYKPLSREHCKKFIEKNYSISDPFVLYLGGFSKRKNVRNLILAFADASKKLSKKHNLVIIGLCRDELESLKDLCRHLNISNEVIFTGYIGERFLPVFYNACELFVYPSLYEGFGLPVLEAMSCKTPVVTSNISSIPEIAGDSAVLINPLDTSELRDAILNILEDSKLKQKLSIEGFNRSRKFSWKNTSKKTLEAYSNIYNTFA”, which “soluble on expression in E. coli” value is on record?
**A.** The value was “not soluble”.

**Q.** For “SNASYETSQHNLDAVEAVLSRLQKQTGEMAAYMVPVGYRALCVSQRESMQALRCSFVQGQSQPLLRGASSKVMLAYMPAARCEKILRYFGEDPTLDKWQSEFEKIRRHGYAVSTSEIDPGVSGISAPVMKGSKLIGAISVMAPAHRVESNKQRIILHVLQAARAL”, which “soluble on expression in E. coli” value is on record?
**A.** Its value is “soluble”.

**Q.** With “QSFRAIQLSDLHIGGLIEEHYMEALGERINALKPDMIFLTGDITDASCEQIRTPLEKLKALQAPLGIYFVSGNHEFFHGIQKTMDFLREMGIVVLENDSRTIEGLVNIAGVHDLFGRRIGFLEPDLEQALYGIDPSLPTILLAHQPKFAKEALGYPVDLILSGHTHGGQIAPFGLLVR” as the sequence, how does the “soluble on expression in E. coli” value read?
**A.** The value was “not soluble”.

**Q.** For “MGSDKIHHHHHHMYKWGWTMTSSVAQLLSTPVEEVAGKEVPVLDKDFSLAEILKAVEKAKIDRAFLTEGNSIRGVLTFRDILDKIATVRTKQAYIGGLHGSSFMNEPVKYVEVGREVSHALETMANGMFTSVPVVGAGGVVEGGITRFELARLVKDLEISQDTSVRDVMRTFLVSVNLQTRILHVRQLLYEYDISVIPVMDEGRFVGVVGLDELMAIIKSFYNLARGEPKRHTPLKYVIVADAIRMRPPVVTPDASLAEAAEKMLEKRYRAVVVVDSEKPVGFTSGLELANFLLTKKSS”, which “soluble on expression in E. coli” value is on record?
**A.** Its value is “not soluble”.

**Q.** For “MGSDKIHHHHHHMKSQWECFLQNLGVWEGSFSNFSPEGTLLNDTSSRLCLEGLNNNQTVRLTLSRSGKDDVIREFRSVGGGLLFFENGSFSEGLIQLGPFSEFGGELAFVHENRRLRLVQLFDRNGHLNGLTLIREHLAGTPVAERPLLQINDLLGEWRGQAVTIYRDLRPPDIYSTTLKIQLDDAGRLMQSTSFGERTITSTATIKGSIVLFDQDPEKQVQVLLLPDGASATSPLKVQLRQPLFLEAGWLIQSDLRQRMIRSYNDKGEWVSLTLVTEERV”, which “soluble on expression in E. coli” value is on record?
**A.** Its value is “not soluble”.

**Q.** With “MSLTTNRTRKAGADSEISDLLKTQSELHGRIAAMAETLGTRQTEMSQTLNQRLDGMSQRLGETLTEQTRSTHENLSRLQERLAVIDAAQGNIQDLAKDVVGLQAILSNKQTRGAFGQARMETLIADALPAGAFQLQPTLSNGYRPDCIIKMPNNAPALVIDAKFPLEAWNAIKADETPETKRAAVQQFRRDMEVHIRDVAEKYLIRGETQDTAFIFVPSESIFADIHQHFEYLVQRAHRARVVIVSPSLLMLSVQVIQSVLKDQRMREQAHLIQGEVALLMDDVRRLDDRTRKLQAHFGLAQKDVDMMLISSDKVLARGQKIEGLDFSPTEKEASHGEIEQTRRFAENRAGAAKLRVVDDEEGHHHHHH” as the sequence, how does the “soluble on expression in E. coli” value read?
**A.** The value was “soluble”.

**Q.** With “MELACHECGFKGEVQDFAFLCKNGCPACGESDMRQCPRCGAHVMFSRAAALEKEEMQMRDLCRELAGIERSDKPEVQKRAMELIGGLRRMNERWNIPQLGDFIKQRSRELFF” as the sequence, how does the “soluble on expression in E. coli” value read?
**A.** The value was “not soluble”.

**Q.** Which “soluble on expression in E. coli” value does the source give for “MSERAYNFNAGPAALPLEVLERAQAEFVDYQHTGMSIMEMSHRGAVYEAVHNEAQARLLALLGNPTGYKVLFIQGGASTQFAMIPMNFLKEGQTANYVMTGSWASKALKEAKLIGDTHVAASSEASNYMTLPKLQEIQLQDNAAYLHLTSNETIEGAQFKAFPDTGSVPLIGDMSSDILSRPFDLNQFGLVYAGAQKNLGPSGVTVVIVREDLVAESPKHLPTMLRYDTYVKNNSLYNTPPSFGIYMVNEVLKWIEERGGLEGVQQANRKKASLIYDAIDQSGGFYRGCVDVDSRSDMNITFRLASEELEKEFVKASEQEGFVGLKGHRSVGGLRASIYNAVPYESCEALVQFMEHFKRSRG” here?
**A.** Its value is “soluble”.

**Q.** With “MSLSTNLITTGIGTEQLEQLLSEYFPTYQISRIDRDSTGRKGALEHHLNAIQTGKSQILIGTQMLAKGHHFPNVTLVALVNVDSALFSTDFRAEERLAQLYLQVAGRAGRAEKTGEVVLQTHYPDHPLLKCLLKDGYNAFAEEALKMRQVMALPPFTAQVLFRATGKQSDKVEHLLQNLTAYFQHKSVELGIEGIQISPPFSAIVAKKAGYYRWLLLIQHQSRSAIQQLLNVFDQEKSALNLPANIRLSLDVDPYDMSEGHHHHHH” as the sequence, how does the “soluble on expression in E. coli” value read?
**A.** Its value is “not soluble”.

**Q.** With “TFDIDLQQYGEKLLQNKIGCVVAIEPQTGEILAFISSPTYDPNLLTGRKYSANYKELEKDPYKPLFNRPLMAMYPPGSIFKLAQAAVALQEGVITDKSRFPCDKTLVNCHNHPSPQDLRGAIQWSCNPYFYMVYKKMISQDKNPNKFKDTEINFDEWRHNMLTLGFGQKMLVDLPSSKSGNIPSNAYYDKIYGDLHWKFSTIYSLSIGQGEINVVPIQMANLAALIANKGWYITPHFIKSIGKDGHILEEYKNKHVTSVEPKYFEPIIDGMEQVVLGGTAYWLKIKDIDICGKTGTAENPHGDDHSVYIAFAPKKEPKIAIAVYVENAGFGAMTAAPIAHLMIEKYLKDTITRKPLEDMILNKNLLHKVKVKP” as the sequence, how does the “soluble on expression in E. coli” value read?
**A.** Its value is “not soluble”.

**Q.** Which “soluble on expression in E. coli” value does the source give for “MAGNFDSEERSSWYWGRLSRQEAVALLQGQRHGVFLVRDSSTSPGDYVLSVSENSRVSHYIINSSGPRPPVPPSPAQPPPGVSPSRLRIGDQEFDSLPALLEFYKIHYLDTTTLIEPVSRSRQGSGVILRQEEAEYVRALFDFNGNDEEDLPFKKGDILRIRDKPEEQWWNAEDSEGKRGMIPVPYVEKYRPASASVSALIGGNQEGSHPQPLGGPEPGPYAQPSVNTPLPNLQNGPIYARVIQKRVPNAYDKTALALEVGELVKVTKINVSGQWEGECNGKRGHFPFTHVRLLDQQNPEEDFS” here?
**A.** The value was “soluble”.

**Q.** With “MSLADWQNLDPEAAREAEKYENPIPSRELILAHLSERGAPATRSQLLDEFGLAGEEPEEALRRRLRAMERDGQLIYTRRGAYAPVDKLDLIRGRISGHRDGFGFLIPDDGSDDLFLSPTQMRLVFDGDRALARVSGHDRRGRREGQLVEVIERAHEIVVGRYFEESGIGVVVADNPKIQQEVLIPPGKAGKARHNQFVQVRIEQWPSIHRQAQGEIVEVLGDYMAPGMEIEVALRSYDIPHVWPAAVEKEAAKLKPEVAEKDKEKRVDLRQVPFVTIDGEDARDFDDAVYAEAKRGGGWRLFVAIADVSHYVKVGSALDEEAARRGNSVYFPERVIPMLPEVLSNGLCSLNPLVDRLAMVCEMTLSKAGKLTGYQFYEAVIHSHARLTYTKVSQLLEHPDSVEAENLRQQLPGVVPHLQQLYALYKALLAGRHVRGAIDFETQETRIVFGADRKISEIRPTQRNDAHRLIEECMLCANVATARFLQKHAIPALYRVHDGPPQEKLNNLRQFLGELGLSLGRGKAAPTPGDYQELLEKIHDRADFRLIQTVMLRSLSQAVYSPDNNGHFGLNYDAYTHFTSPIRRYPDLLVHRAIRSVIRSKAETPHVQRAGAASMPKARIYPYDELRLDQLGEQCSMTERRADEATRDVTNWLKCEYMRERVGETFPGVITAVTGFGLFVELTDIFVEGLVHVTALPGDYYHFDAVHHRLSGERTGRSFRLGDTTEVVVARVDLDERKIDFELAGNVLSAPIGRKKRNGDKSANAGKAPKGRKGASVPEVDLEPALASPDAAVVPRRKAGKVQALPPVAPELLAQAAEMLGNTDVRKSREVKQALLAEARVGGKDKGGKKGKVVPAGKSAKGKAKDGKPAAAAKPGKPTKHRKGPSKPKADNAPAATGARKRKAKSEGHHHHHH” as the sequence, how does the “soluble on expression in E. coli” value read?
**A.** Its value is “not soluble”.
